Laboratory results published in US20160177307.

Experiments:
Assay in all cases: filter
[1] = system: T1, VEGF-165 (Homo sapiens), P15692-4
T1 sequence: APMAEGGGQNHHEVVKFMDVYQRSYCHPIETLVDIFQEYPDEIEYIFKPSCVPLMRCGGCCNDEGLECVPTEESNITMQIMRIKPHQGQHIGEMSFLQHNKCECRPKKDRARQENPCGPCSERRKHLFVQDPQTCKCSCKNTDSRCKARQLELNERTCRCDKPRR

[2] = system: T2, VEGF-121 (Homo sapiens), P15692-9
T2 sequence: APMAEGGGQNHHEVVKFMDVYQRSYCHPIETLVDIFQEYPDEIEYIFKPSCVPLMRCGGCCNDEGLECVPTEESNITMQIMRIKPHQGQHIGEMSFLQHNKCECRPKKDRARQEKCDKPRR

[3] = biological target: PDGF-BB (platelet-derived growth factor BB) (Homo sapiens) (UniProt P01127)
Sequence of PDGF-BB (platelet-derived growth factor BB) (Homo sapiens) (P01127 82-190): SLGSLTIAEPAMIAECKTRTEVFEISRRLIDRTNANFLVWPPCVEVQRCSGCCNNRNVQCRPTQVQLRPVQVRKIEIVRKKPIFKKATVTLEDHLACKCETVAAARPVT

[4] = biological target: PDGF-AB (UniProt P04085+P01127)
Sequence of PDGF-AB (P01127 82-190, chain 2 of 2, other chains not shown): as the sequence (P01127 82-190) above

[5] = system: T3, VEGF-164 (Rattus norvegicus), P16612-2; conditions: P=Nap-dU
T3 sequence: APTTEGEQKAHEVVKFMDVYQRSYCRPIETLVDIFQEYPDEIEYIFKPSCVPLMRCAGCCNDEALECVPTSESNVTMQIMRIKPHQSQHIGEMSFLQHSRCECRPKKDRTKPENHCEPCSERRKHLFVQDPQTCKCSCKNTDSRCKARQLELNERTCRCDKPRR

[6] = VEGF-PDGF heterodimer, no Heg linker, NapdU, BndU
[7] = BndU at 1,2,7,8,16,17,18,20, Heg at 5, 2'-OMe A3,A11,A21,G24
[8] = Bn-dU, Heg linker, 2'-OMe A3, A11, A19, A21, G24
[9] = Z BndU, P NapdU, 2'-OMe at superscript-1 positions, C3 spacers, three Heg linkers
[10] = Bn-dU, MBn-dU, Nap-dU, 2'-OMe, C3, 2 Heg between parts
[11] = Bn-dU, MBn-dU, Nap-dU, 2'-OMe, C3, 4 Heg between parts
[12] = Bn-dU, MBn-dU, Nap-dU, 2'-OMe, C3, 5 Heg between parts
[13] = Bn-dU, MBn-dU, Nap-dU, 2'-OMe, C3, 6 Heg between parts

Sequence: CCGTTCAAGTGCTTTAGATTTAAATGGTTACGTTACACGCGTTTATAGC [4149-8_313]
- Kd ([1]; Nap-dU (VEGF part), Bn-dU (PDGF part), C3, Heg, 2'-OMe, VEGF): 0.258 nM
- Kd [2, 6]: 4.31 nM
- Kd [3, 6]: 0.0933 nM
- Kd [4, 6]: 0.165 nM

Sequence: CCGTTCAAGTGCTTTAGATTTAAATGGTTACGTTACACGCGTTTATAGC [4149-8_314]
- Kd ([1]; Nap-dU, Bn-dU, C3, 1 Heg linker, 2'-OMe, VEGF): 0.143 nM
- Kd ([2]; VEGF-1Heg-PDGF, NapdU, BndU): 1.55 nM
- Kd ([3]; VEGF-1Heg-PDGF, NapdU, BndU): 0.136 nM
- Kd ([4]; VEGF-1Heg-PDGF, NapdU, BndU): 0.111 nM

Sequence: CCGTTCAAGTGCTTTAGATTTAAATGGTTACGTTACACGCGTTTATAGC [4149-8_315]
- Kd ([1]; Nap-dU, Bn-dU, C3, 2 Heg linker, 2'-OMe, VEGF): 0.086 nM
- Kd ([2]; VEGF-2Heg-PDGF, NapdU, BndU): 0.758 nM
- Kd ([3]; VEGF-2Heg-PDGF, NapdU, BndU): 0.119 nM
- Kd ([4]; VEGF-2Heg-PDGF, NapdU, BndU): 0.123 nM

Sequence: CCGTTCAAGTGCTTTAGATTTAAATGGTTACGTTACACGCGTTTATAGC [4149-8_316]
- Kd ([1]; Nap-dU, Bn-dU, C3, 3 Heg linker, 2'-OMe, VEGF): 0.157 nM
- Kd ([2]; VEGF-3Heg-PDGF, NapdU, BndU): 0.5 nM
- Kd ([3]; VEGF-3Heg-PDGF, NapdU, BndU): 0.0897 nM
- Kd ([4]; VEGF-3Heg-PDGF, NapdU, BndU): 0.137 nM

Sequence: CGTTCAAGTGCTTGTAGGATTTAAATGGA [4867-31_60]
- Kd ([1]; NapdU at P): 0.61 nM
- Kd ([2]; NapdU at P): 2.2 nM
- Kd [5]: 1.4 nM

Sequence: GCCGTTCAAGTGCTTGTAGGATTTAAATGGA [4867-31_58]
- Kd ([1]; NapdU at P): 0.1 nM
- Kd ([2]; NapdU at P): 0.15 nM
- Kd [5]: 0.21 nM

Sequence: GTTCAAGTGCTTGTAGGATTTAAATGGA [4867-31_61]
- Kd ([1]; NapdU at P): 2.9 nM
- Kd ([2]; NapdU at P): 33 nM
- Kd [5]: 13 nM

Sequence: TCAATCAGCCGTTCAAGTGCTTGTAGGATTTAAAT [4867-31_25]
- Kd ([1]; NapdU at P): 26 nM
- Kd ([2]; NapdU at P): 70 nM
- Kd [5]: 16 nM

Sequence: TCAATCAGCCGTTCAAGTGCTTGTAGGATTTAAATG [4867-31_24]
- Kd ([1]; NapdU at P): 2.8 nM
- Kd ([2]; NapdU at P): 36 nM
- Kd [5]: 4.2 nM

Sequence: TCAATCAGCCGTTCAAGTGCTTGTAGGATTTAAATGG [4867-31_23]
- Kd ([1]; NapdU at P): 0.3 nM
- Kd ([2]; NapdU at P): 1.3 nM
- Kd [5]: 0.66 nM

Sequence: TCAATCAGCCGTTCAAGTGCTTGTAGGATTTAAATGGA [4867-31_22]
- Kd ([1]; NapdU at P): 0.26 nM
- Kd ([2]; NapdU at P): 0.82 nM
- Kd [5]: 0.54 nM

Sequence: TCAGCCGTTCAAGTGCTTGTAGGATTTAAATGGA [4867-31_41]
- Kd ([1]; P=Nap-dU): 0.13 nM
- Kd ([2]; P=Nap-dU): 0.63 nM
- Kd [5]: 0.08 nM

Sequence: TCAGCCGTTCAAGTGCTTGTAGGATTTAAATGGAA [4867-31_35]
- Kd ([1]; P=Nap-dU): 0.11 nM
- Kd [5]: 0.05 nM

Sequence: TCAGCCGTTCAAGTGCTTGTAGGATTTAAATGGAAT [4867-31_29]
- Kd ([1]; P=Nap-dU): 0.13 nM
- Kd ([2]; P=Nap-dU): 0.96 nM
- Kd [5]: 0.08 nM

Sequence: TTACGACTACGTTACACGCGTTTATAGC [4149-8_39]
- Kd ([3]; BndU at 1,2,8,12,13,21,22,23,25, rest DNA, SB18T, 37 C, Table 18 gives 87.5 pM): 0.11 nM
- Kd ([4]; BndU at 1,2,8,12,13,21,22,23,25, rest DNA): 0.0476 nM

Sequence: TTACGTTACACGCGTTTATAGCG [4149-8_130]
- Kd [3, 7]: 0.0759 nM
- Kd [4, 7]: 0.141 nM

Sequence: TTACGTTACACGCGTTTATAGCG [4149-8_273]
- Kd [3, 8]: 0.0614 nM
- Kd [4, 8]: 0.189 nM

Sequence: TTACGTTACACGCGTTTATAGCGCCGTTCAAGTGCTTTAGATTTAAATG [4149-8_318]
- Kd ([1]; Bn-dU, Nap-dU, C3, 1 Heg linker, 2'-OMe, VEGF): 0.27 nM
- Kd ([2]; PDGF-1Heg-VEGF, NapdU, BndU): 2.47 nM
- Kd ([3]; PDGF-1Heg-VEGF, NapdU, BndU): 0.0431 nM
- Kd ([4]; PDGF-1Heg-VEGF, NapdU, BndU): 0.0818 nM

Sequence: TTACGTTACACGCGTTTATAGCGCCGTTCAAGTGCTTTAGATTTAAATG [4149-8_319]
- Kd ([1]; Bn-dU, Nap-dU, C3, 2 Heg linker, 2'-OMe, VEGF): 0.125 nM
- Kd ([2]; PDGF-2Heg-VEGF, NapdU, BndU): 1.07 nM
- Kd ([3]; PDGF-2Heg-VEGF, NapdU, BndU): 0.0242 nM
- Kd ([4]; PDGF-2Heg-VEGF, NapdU, BndU): 0.0302 nM

Sequence: TTACGTTACACGCGTTTATAGCGCCGTTCAAGTGCTTTAGATTTAAATG [4149-8_320]
- Kd ([1]; PDGF-3Heg-VEGF, NapdU, BndU): 0.0768 nM
- Kd [2, 9]: 0.422 nM
- Kd [3, 9]: 0.015 nM
- Kd ([4]; PDGF-3Heg-VEGF, NapdU, BndU): 0.0493 nM

Sequence: TTACGTTACCGCGTTTATAGCGCCGTTCAAGTGCTTGTAGGATTTAAATGG [4149-8_414]
- Kd [1, 10]: 0.051 nM
- Kd [2, 10]: 0.023 nM
- Kd [3, 10]: 0.01 nM

Sequence: TTACGTTACCGCGTTTATAGCGCCGTTCAAGTGCTTGTAGGATTTAAATGG [4149-8_415]
- Kd [1, 11]: 0.03 nM
- Kd [2, 11]: 0.04 nM
- Kd [3, 11]: 0.0081 nM

Sequence: TTACGTTACCGCGTTTATAGCGCCGTTCAAGTGCTTGTAGGATTTAAATGG [4149-8_416]
- Kd [1, 12]: 0.03 nM
- Kd [2, 12]: 0.041 nM
- Kd [3, 12]: 0.0089 nM

Sequence: TTACGTTACCGCGTTTATAGCGCCGTTCAAGTGCTTGTAGGATTTAAATGG [4149-8_417]
- Kd [1, 13]: 0.065 nM
- Kd [2, 13]: 0.043 nM
- Kd [3, 13]: 0.011 nM
